PMC4250834 (Cell reports, 2014)
No end group written: not given here.

Target: T1, recombinant Clp1 (alone) (S. cerevisiae, UniProt Q08685 1-445)
T1 sequence (looked up): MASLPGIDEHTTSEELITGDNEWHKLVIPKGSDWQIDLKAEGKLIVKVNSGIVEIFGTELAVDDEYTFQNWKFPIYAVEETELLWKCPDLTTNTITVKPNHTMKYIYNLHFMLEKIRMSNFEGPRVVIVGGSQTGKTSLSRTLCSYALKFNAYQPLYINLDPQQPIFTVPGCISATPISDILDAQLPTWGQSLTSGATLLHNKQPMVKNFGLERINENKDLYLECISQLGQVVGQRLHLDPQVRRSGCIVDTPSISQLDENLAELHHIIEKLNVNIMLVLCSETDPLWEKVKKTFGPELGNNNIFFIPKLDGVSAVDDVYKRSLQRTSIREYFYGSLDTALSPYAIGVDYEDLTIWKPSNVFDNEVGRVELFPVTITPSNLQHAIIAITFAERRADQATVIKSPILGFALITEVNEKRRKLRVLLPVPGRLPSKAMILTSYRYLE
Experiment: pull-down

binding result: binds
Binder: TTPISPDEEELGQRTAYHSKRDASTPLRS (peptide, UniProt P08518 915-943, looked up, also: biotin, site not given here) [biotinylated flap loop peptide (Rpb2 amino acids 915–943)]
